For the experiment, the target named is human TNFR2 (tumor necrosis factor receptor 2) (human) (UniProt P20333). Briefly: surface plasmon resonance (Pioneer SensiQ). Background: Surface plasmon resonance follows binding to a sensor surface in real time, without labels.

Results on 1 substance are retold here after patent publication US20200368282A1.

UniProt P20333, sequence (P20333 23-257 S98P/S102P limits assumed): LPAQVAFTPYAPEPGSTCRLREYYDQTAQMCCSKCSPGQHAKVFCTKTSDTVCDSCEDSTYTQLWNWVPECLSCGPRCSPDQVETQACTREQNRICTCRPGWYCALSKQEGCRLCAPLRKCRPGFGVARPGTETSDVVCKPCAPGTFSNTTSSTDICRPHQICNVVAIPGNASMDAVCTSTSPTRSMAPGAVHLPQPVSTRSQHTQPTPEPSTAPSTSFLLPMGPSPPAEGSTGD

What is called Kd is the concentration at which binding is half-saturated. Read a low Kd as higher affinity. In turn, “Clone MAB726 (R&D Systems, Inc.) (antibody)” had a Kd of 0.621 nM.
